# From the nanobody polyreactivity screen of Harvey et al. (2022)
# Experiment: yeast display, Sf9 membrane polyspecificity reagent, FACS + sequencing; frameworks hold sequencing errors
# How it was run: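 A synthetic nanobody library was expressed on Saccharomyces cerevisiae BJ5465 by galactose induction for 36–48 hours. The library was stained for 1 hour at 4 °C with 10% biotinylated, detergent-solubilized Sf9 membrane reagent and enriched with streptavidin microbeads before FACS. Low and high (top ~1%) gates were set on anti-HA fluorescence for expression and streptavidin fluorescence for reagent binding, and each polyreactivity label reflects the gate of origin.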
row,Sequence,polyreactivity (PSR sort gate)
1,QVHLVESGGGLVQAGGSLRLSCAASGFTFSFYAMGWYRQAPWKEIEFVAAITNSGGSTYYADSVKGRFTISRDNSKNSVYLQMNSLKPEDTAVYYCATKRAWPGYFTYYYWGQGTQVTVSS,high polyreactivity
2,QVQLVESGGGLVQAGGSLRLSCAASGGIFAYYAMGWYRQAPGKERELVAAITSRGGRTYYADSVKGRFTISRDNAKNTVYLQMNSLKPEDTAVYYCNAERFWPWDYDYWGQGTQVTVSS,high polyreactivity
3,QVQLQESGGGLVQAGGSLRLSCEASGSISHYIFMGWYRQAQGKEREFVAGIGYGGTTNYADSVKGRFTISRDNAKNTVYLQMNSLKPEDTAMYYCAAREATEFYLYYWGQGTQVTVSS,low polyreactivity
4,QVQLVESGGGLVQAGGSLRLSCAASGRTFYWYGMGWYRQAPGKERELVATISRGSRTYYADSVKGRFTISRDNAKNTVYLQMNSLKPEDTAVYYCNADTWPGEYNGYFSGAYDYWGQGTQVTVSS,high polyreactivity
5,QVQLVESGGGLVQAGGSLRLSCAASGLIFGYYTMGWYRQAPGKEREFVAAISRGGGSTYYADSVNGRFTISRDNAKNTVYLHMNSLKPEDTAVYYCAAVVYGQVQPAYDYWGQGTQVTVLS,high polyreactivity
6,QVQLVESGGGLVQAGGSLRLSCAASGSTFGNNAMGWYRQAPGKERELVATIDDTTVSTNYADSVKWRFTISRDNAKNTVYLQMNSLKPEDTAVYYCAAPVGNYGSFDYWGQGTQVTVSS,low polyreactivity
7,QVQLVESGGGLVQAGGSLRLSCAASGSNFRVYAMGWYRQAPGKESELVAAIDSGTSTTYADSVKGRFTISRDNAKNTVYLQMNSLKPEDTAVYYCAADGWLWSFTGDGWWFDYWGQGTQVTVSS,low polyreactivity
8,QVQLQESVGGLVQAGGSLRLSCAASGSIFKVVDMGLYRQAPAKEREFVATIGEGGNTYYADSVKGRFTISRDNAKNTVYLQMNSLKPEDTAVYFYAVVLGTSYRYTYWGQGTLVTVSS,low polyreactivity
9,QVQLVESGGGLVQAGGSLRLSCAASGFTFIDNTMGWYRQAPGKERELVAAISSDGRTNYAVSVKGRFTISRDNAKNTVYLQMNSLKAEDTAFYYCATEDNYWYVTGDLYHSAFYYWGQGTQVTVSS,low polyreactivity
10,QVQLVESGGGLVQAGGSLRLSCAASGSSFNYNTMGWYRQAPGKERELVADISWSGGSTYYADSVKGRFTISRDNAKNTVYLQMNSLKPEDTAVYYCAADFGLFPYVGTGYYYWGQGTQVTVSS,low polyreactivity
11,QVQLVESGGGLVQAGGSLRLSCAASGTLYINVMGWYRQAPGKERELVAAISSNGARTYYADSVKGRFTISRDNAKNTVYLQMNSLKPEDTAVYYCNRVASVRARDYDYWGQGTQVTVSS,high polyreactivity
12,QVQLVESGGGLVQAGGRLRLSCAASGRTFPLYAMGWYRQAPGKERELVAAISSSGGNTYYADSVKGRFTISRDNAKNTVYLQMNSLIPEETAVYYCNADVSTNSDRLQLDYWGQGTQVTVSS,low polyreactivity
13,QVHLVESGGGLVQAGGSLRLSCAASGRIFARNAKGWYRQAPGKERELVATIRVGGGSTYYADSVKGRYTISRDNAKNTVYLQMNSLKPEDTAVYYCAVRQLYSYPGDRRGYYWGQGTQVTVSS,low polyreactivity
14,QVQLVESGGGLVQAGGSLRLSCAASGSTIGPYAMGWSRQAPGKERELVAAITISGDSTNYADSVKGRFTISRDNAKNTVYLQMLSLKPEDTAVYYCAAAYYWLQSWYDYWGQGTLVTVSS,low polyreactivity
15,QVQLVESGVGLVQARGSLRISCAASGFIFDLYAMGWYIQAHGKERELVAAITTSGGTTYYADSVKGRFTISRDNAKNTVYLQMNSLKPEDTAVYYCNALRRYVSVRPTKSDYWGQGTQVTVSS,high polyreactivity
16,QVQLVESGGGLVQAGGSIRLSCAASGRTFKKYAMGWYRQAPGKERELVAAITGSGGSTYYADSVKGRFTISRDNAKNTVYLQINSLKPEDTAVYYCAAYAYGVGHSQDGGNYWGQGNQVTVSS,low polyreactivity
17,QVQLVESGRGLVQAGGSLRLSCAASGITLYTNAMGWYRQAPGKEREFVAGISWNGGRTYYADSVKGRFTISRDNAKNTVYLQMNSLKPEDTAVYYCNARFVYRYKYYYWGQGTQVTVSS,high polyreactivity
18,QVQLVESGGGLVQAGGSLRLSCAASGITFVYYTMGWYRQAPGKERELVAAISSTGGSTYYADSVKGRFTISRDNAKNTVYLQMNSLKPEDTAVYYCAADARTFGGYGYWGQGTQVTVAS,high polyreactivity
19,QVQLVESGGGLVQAGGSLRLSCAASGSTFLDNAMGWYRQAPGKERELVAAITQSGSSTYYADSVKGRFTISRDNAKNTVYLQMNSLKPEDTAVYYCAADVPNISFDYWGQGTQVTVSS,low polyreactivity
20,QVQLVESGGGLVQAGGSLRLSCAASVSIFGPYAKGWYRQAPGKERDLDAAISRGSRTNYADSVKGLFTISRDNEKNTVYLQMNSLKPEDTAVYYCAARYVWRSTHHRGSTYDYWRQGTQVTVSS,high polyreactivity
21,QVQLVESGGGLVQAGGSLRLSCAASGSIFITYDMGWYRQAPGKERELVAAISSVGRTTYADSVKGRFTISRDNAKNTVYLQMNSLKTEDTAVYYCAVVGRSSHNVRTYGYWGQGTQVTVTS,low polyreactivity
22,QVQIVESGGGLVQAGGSLRLSCAASGRIFCGNVMGWYRQAPGKERELVAAISGRGGRTYYAHSVKGRFTISRDNAKNTVYLQMNSLKPEDTAVYYCAASTGEEISGKRYNYWGQGTQVTVSS,high polyreactivity

row,Sequence,polyreactivity (PSR sort gate)
1,QVQLVESGGGLVQAGGSLRLSCDASGLTFDQYAMGWYRQGPGKERELVAAISGSDSTYYADSVKGRFTISRDNAKNTVYLQMNSLKPEDTAVYYCAASGDYVNIITGERFDARLYDYWGQGTQVTVSS,low polyreactivity
2,QVQLVESGGGLVQVGGSLRLSCAASGGIFSGNAMGWYRQAPGKERELVAGITNCGRTSYADSVKGRFTISRDNAKNTDYFQMNSLKPEDTAVYYCNAKVGAYLNYGYWGQGTQVTVSS,low polyreactivity
3,QVQLVESGGGLVQAGGSLRLSCAASGITFFYYAMGWYRQAPGKERELVAAINWSGRTYYADSVKGRFTISRDNAKNTVYLQMNSLKPEDTAVSYCAAVTYGPGVSGMDYWGQGTQVTVSS,low polyreactivity
4,QVQLVESGGGLVQAGGSLRLSCAASGSIFPGYAMGWYRQAPGKERELVATITWSGGSTYYADSVKGRFTISRDNAKNTVYLQMNSLIPEDTAVYYCNADSNWYYQWNYYGLYDYWGQGTQVTVSS,low polyreactivity
5,QVQLVESGGGLVQAGGSLRLSCAASGFIFDWYAMGWYRQAPGKERELVAAITRSGGNTYYADSVKGRFTISRDNAKNTVYLQMNSLKPEDTAVYYCNAVAAVYAYGHDYWGQGTQVTVSS,high polyreactivity
6,QVQLVESGGGLVQAGGSLRLSCAASGIIFGVNVMGWYRQAPGKERELVATITWRGDSTYYADSVKGRFTISRDNAKNTVYLQMNSLKPEDTAVYYCAVLRSWWYRYDYWGQGTQVTVSS,low polyreactivity
7,QVQLVESGGGLLQAGGSLRLSCAASGSIFTHNAMGWYRQAPGKERELVAAISSGGSTNYADSVKGRFTISRDNAKNTVYLHMNSLKPEDTAVYYCAATDQKLSLDYSSYEYWGQGTQVTVSS,low polyreactivity
8,QVQLVESGGGLVQAGGSLRLSCSASGSTFEKNAMGWYRQAPGKERELVAAISNGVSTYYADSVKGRFTNSRDNAKNTVYLKINSLKPEDTAVYYCAAVLFFGAETVYYDKFDYWGQGTQVTVSS,low polyreactivity
9,QVQLVESGGGLVQAGGSLRLSCAASGSTLGYYAKGWYRQAPGKERELVATITRSGGNTYYADSVKGRFTISRDNAKNTVYLQMNSLKPEDTAVYYCAARRLYGSQRGYWGQGTQLTVSS,high polyreactivity
10,QVQLVESGGGLVQAGGSLRLSCAASGRTLGSNTMGWYRQAPGKERELVASISLSGGSTSYADSVKGRFTISRDNAKNTVYLQMNSLKPEDTAVYYCNAKYHRRLQWGTRYYYWGQGTQVTVSS,high polyreactivity
11,QVQLVESGGGLVQAGGSLRLSCAASGSTFAGYAMGWYRQAPGKERELVATITYSGGTTYYADSVKGRFTISRDTAKNTVFLQMKSLKPEDTAVYYCDNKASYWWGFEYWGQGTQVTVSS,low polyreactivity
12,QVQLVESGGGLVQAGGSLRLSCAASGRIFSYYAMGWYRQAPGKERELVAAIRWSGGRTYYADSVKGRFTISRDNAKNTVYLQMNSLKPEDTAVYYCAAEGAYRLAYDYWGQGTQVTVSS,high polyreactivity
13,QVQLVESVGGLVQAGGSLRLSCAASGRTFQYNAMGWYRPAPGKERELVAAISSSGGSTYYADSVKGRFTISRDNAKNTVYLQMNSLKPEDTAVYYCNAYSQSWNFYGDGDYWGQGTQVTVSS,low polyreactivity
14,QVQLVESGGGLVQAGGSLRLSCAASGSTFWSYTMGWYRPAPGKERELVARIRTTGGSTYADSVKGRFTISRDNAKNTVYLQMNSLKPEDTAVYDCAKEGWLRYYPWYGGDYWGQGTLVTVSS,high polyreactivity
15,QVQLVESGGGLVQAGGSLRLSCAASGRTFKYNAMGWYRQAPGKERELVAVIRYSGGTTYYADSVKGRFTISRDNAKNTVYLQMNSLKPEDTAVYYCNADGPYVLPGWYFRTDNSWGQGTQVTVSS,low polyreactivity
16,QVQLVESGGVLVQAGGSLRLSCAASGITFPDYDMGWYIHATGKERELVAAITYRSGSTYYADSVKGRFTISRDNAKNTVFLQMNCLKREDTAVYYCAADWRTKGYDSLGQGTQVTVSS,high polyreactivity
17,QVQLVEAGGGLVQAGGRLRLSCAASGIIIVPYTMGWYRQAPGKERELVAAISRSGGRTYYADSVKGRFTISRDNAKNTVYLQMNSLKPEDTAVYDCNKRSLYYGYYLYYRMDYWGQGTQVTVSS,high polyreactivity
18,QVQLVESGGGLVQAGGSLLLSCAASGSIFRVYAMGGYRQAPGKESELVAAISVSGSSTYYADSVKGRFTISRDNAKNTVYFQMNCLKREDTAVYYCATKQRRGYWGYITAYARYYWGQGTQVSVSS,high polyreactivity
19,QVQLVESGGGLVQAGGSLRLSCAASGFIFYRYAMGWYRQAPGNERELVAAISSGGSTYYADSVKGRFTISRDNAKNTVYLQMNSLKPEDTAVYYCNAYHNYWRYRTDEMNYWGQGTQVTVSS,high polyreactivity
20,QVQLVESGGGLVQAGGSLRLSCAASGRTFSANTMGRYRQAPGKERELVAAITRGASTKYADSVKGRFTISRDNAKNTVYLPMNSLNPDDTAVYYCAAAVAYEYLQYAYTRYYYWGQGTQVTVSS,high polyreactivity
21,QVQLVESGGGLVQAGGSLRLSCAASGRTFTGNVMGWYRQAPGKERELVAAISRRGGITYYADSVKGRFTISRDNAKNTVYLQMNSLKPEDTAVYYCDAYSWRRQGDHYDYWGQGTQVTVSS,high polyreactivity
